Measured values reported in PMC11685794 (Nature Communications, 2024).

B1: hemoglobin (Hb) (complex)
chain 1: not shown
chain 2: not shown
B2: CD163 SRCR 1-5 (residues 42-578) (domain or fragment)
chain: SSLGGTDKELRLVDGENKCSGRVEVKVQEEWGTVCNNGWSMEAVSVICNQLGCPTAIKAPGWANSSAGSGRIWMDHVSCRGNESALWDCKHDGWGKHSNCTHQQDAGVTCSDGSNLEMRLTRGGNMCSGRIEIKFQGRWGTVCDDNFNIDHASVICRQLECGSAVSFSGSSNFGEGSGPIWFDDLICNGNESALWNCKHQGWGKHNCDHAEDAGVICSKGADLSLRLVDGVTECSGRLEVRFQGEWGTICDDGWDSYDAAVACKQLGCPTAVTAIGRVNASKGFGHIWLDSVSCQGHEPAIWQCKHHEWGKHYCNHNEDAGVTCSDGSDLELRLRGGGSRCAGTVEVEIQRLLGKVCDRGWGLKEADVVCRQLGCGSALKTSYQVYSKIQATNTWLFLSSCNGNETSLWDCKNWQWGGLTCDHYEEAKITCSAHREPRLVGGDIPCSGRVEVKHGDTWGSICDSDFSLEAASVLCRELQCGTVVSILGGAHFGEGNGQIWAEEFQCEGHESHLSLCPVAPRPEGTCSHSRDVGVVCS

Columns and labels:
[1] = biological target: B2; assay: SPR
[2] = biological target: haptoglobin-hemoglobin complex, Hp(1-1)Hb (αβHb bound to dimeric Hp1-1) (human, UniProt P00738-2;P00738;P69905;P68871); assay: SPR

| Kd [1] [µM] | Kd [2] [µM] | Binder |
| --- | --- | --- |
| 43.8 |  | B1 |
|  | 0.766 | B2 |
